The values that follow come from patent US6803203B1, “DNA-PK assay” (Brookhaven Science Associates, priority 1993, dated 2004).

“Also recorded” adds a separate entry of the source. No end group written: not given here.

The target of assay [1] is T1, DNA-PK (Homo sapiens, UniProt P78527).
T1 construct: DNA-PK was purified from HeLa cells; endogenous in cells; host or cells: HeLa S3 cells; the endogenous enzyme was purified in house by chromatography
Put plainly: Phosphorylation of synthetic peptides by purified DNA-PK (phosphocellulose paper binding method). It is filed as biochemical.
Protocol: Phenylmethylsulfonyl fluoride was added to the S10 (10,000×g) supernatant as a powder to 0.5 mM. DNA-PK activity was found in the 100,000×g (ribosomal) pellet. DNA-PK preparations typically were made from 200 ml of S10 supernatant that had been derived from approximately 10^10 cells. All steps were performed at 4° C. unless indicated otherwise.
Phosphorylation reactions were performed in a 20- or 40-μl final volume as previously described by Chen, et al., J. Virol., 10:5131-5140 (1991) and Lees-Miller, et al., Mol. Cell. […] In particular, in addition to synthetic peptide substrates or protein substrates, the assays contained 50 mM HEPES (pH 7.5), 100 mM KCl, 10 mM MgCl2, 2 mM EGTA, 0.1 mM EDTA and 0.125 mM ATP containing [^32P]ATP at 0.2 mCi/ml. […] Assays were started by adding 1 μl of kinase sample. Incubations were at 30° C. for 7 min.
For determinations of kinetic constants, the ATP concentration was 0.5 mM. When present, hsp90 was included at 0.5 mg/ml. Assay mixtures were preincubated at 30° C. for 2 min before addition of 0.1 to 0.5 μg (protein) of the DNA-PK preparation.
In particular, kinase reactions were stopped by adding an equal volume of 30% acetic acid, and portions of the acidified reaction were spotted on 2- by 2-cm squares of P-81 paper (Whatman, Inc., Clifton, N.J.). […] The P-81 squares were then transferred to scintillation vials containing 3.5 ml of water, and bound radioactivity was determined from the Cerenkov radiation. Enzyme activity was calculated from triplicate determinations, using the specific activity of the ATP and the protein concentration, which was determined by the Bio-Rad dye-binding assay (Bio-Rad (Bradford) Protein Assay Kit 1, Cat. No. 500-001, Bio-Rad Laboratories, Hercules, Calif.), using bovine serum albumin as the standard. […] The kinetic constants, Km and Vmax for each peptide sequence were calculated from plots of 1/[S] versus 1/V, the values reported are averages of at least two independent determinations.

Assay [2] addresses T1, DNA-PK. The assay can be described thus: Phosphorylation of synthetic peptides in crude cell extracts (HeLa, T98G). The class given is biochemical. Particulars: for PO4 incorporated + DNA: + calf thymus DNA 10 μg/ml; for PO4 incorporated + DNA / PO4 incorporated − DNA: peptide 200 μM, 10 min 30° C.; for PO4 incorporated − DNA: without DNA. Here is the method: To examine cells for DNA-PK content, extracts from HeLa, T98G human glioblastoma, and mouse L 929 cells were prepared by freeze-thaw lysis of cells harvested from five nearly confluent 9-cm-diameter plates as described in Example 1 and by Lees-Miller, et al. J. Biol. Chem., 264:2431-2437 (1989). T98G (ATCC CRL 1690) is a human glioblastoma cell line; L-929 (ATCC CCL 1) was derived from connective tissue of the NCTC 2071 mouse. Based on earlier work with natural protein substrates, it was expected that extracts of HeLa and T98G cells would contain a significant amount of DNA-PK activity while the extracts of mouse L 929 would contain little, if any, DNA-PK activity. Lysates in low-salt buffer were centrifuged at 10,000×g, to give a supernatant fraction (designated S10) and pellets (designated P10). The pellets were washed by resuspension in a high salt buffer (0.5 M KCl, 25 mM N-2-hydroxyethylpiperazine-N′-2-ethanesulfonic acid (HEPES; pH 7.5), 10 mM MgCl2, 1 mM dithiothreitol) and were sonicated. The sonicated suspension was centrifuged at 10,000×g for 10 min to give a second supernatant fraction (designated P10S), which was diluted with buffer lacking KCl to give a volume equal to that of the original supernatant (S10). Protein concentrations, determined using the Bio-Rad dye-binding assay, were as follows: HeLa S10, 3 mg/ml; HeLa P10S, 1 mg/ml; T98G S10, 3.5 mg/ml;,T98G P10S, 1 mg/ml; L-929 S10, 1 mg/ml; and L-929 P10S, 0.3 mg/ml. These extracts were assayed for the ability to phosphorylate (SEQ ID NOS: 11 and 20) with and without added calf thymus DNA.

Assay [3] deals with DNA-PK. Put plainly: DNA-PK activity in extracts of monkey cell lines. The class given is biochemical, African green monkey. Conditions: peptide 0.2 mM; for Specific Activity + DNA: + calf thymus DNA 10 μg/ml; for Specific Activity − DNA: no added DNA. Here is the method: Extracts of additional primate and rodent cells were tested for the presence of DNA-PK activity in accordance with the method of the present invention. The DNA-PK activity was determined using the methods described in Examples 1, 4 and 5 for seven human cell lines, two African green monkey kidney lines, and six rodent cell lines.
Extracts were prepared essentially as described in Example 10. Cells were lysed by freezing and thawing in hypotonic buffer; soluble (S10) “cytoplasmic” and insoluble in (P10) “nuclear” fractions were made by centrifuging lysates at 10,000×g for 10 min. The insoluble fraction was extracted with buffer containing 0.5 M KCl, which releases any DNA-PK that is bound to DNA. After centrifugation of the salt-washed pellet fraction, which removed the remaining insoluble material, the salt extract (P10S) was diluted and assayed as previously described.
Protein concentrations, determined using the Bio-Rad dye binding assay, were between 0.3 and 6 mg/ml. Extracts were incubated at 30° C. for 10 min with each peptide at 0.2 mM in the absence of added DNA (−DNA) or with 10 μg/ml calf thymus DNA (+DNA). After incubation the reaction mixtures were acidified with an equal volume of 30% acetic acid and spotted on to Whatman P-81 phosphocellulose paper (Whatman, Inc., Clifton, N.J.). The filters then were washed extensively in 15% acetic acid before the adsorbed radioactivity was quantitated as described in Example 5.
The amount of phosphate incorporated was calculated from the specific activity of the ATP. The rate of phosphate incorporation into the Ser-Gln-Glu peptide (Table 1) (SEQ ID NO: 11) in the presence of calf thymus DNA was approximately linear throughout the 10 minute reaction incubation period. Parallel assays were performed without added peptide, and these background values were subtracted to produce the activities that are shown in Table 3. Background values varied but, in all cases, were less than 0.2 nmol/min/mg (a few percent of the activity present in human cells). The specific activities were calculated from the total activity in the two fractions divided by the total protein in the two fractions. The percent of total DNA-PK activity in the S10 and P10S fractions was determined with peptide (SEQ ID NO: 11) in the presence of added calf thymus DNA. Extracts without substantial DNA-PK activity were examined for their ability to inhibit purified DNA-PK. Inhibitory activity was not detected.

Turning to EPPLSEQAFADLWKK [SEQ ID NO: 20], in the assay with DNA-PK [1], the “substrate activity for DNA-PK (in words)” value was “negligible substrate activity; also recorded: not phosphorylated by DNA-PK”. For the same sequence, the PO4 incorp. with DNA-PK [1] (each peptide at 200 μM, calf thymus DNA 10 μg/ml, 30° C.) is given as 0 pmol/min/μg of DNA-PK. Also, the “PO4 incorporated + DNA” value with DNA-PK [2] (HeLa, P10S) is reported as 0.0 nmol/min/ml of extract; in the assay with DNA-PK [2] (HeLa, S10) it was 0.3 nmol/min/ml of extract; in the assay with DNA-PK [2] (T98G, P10S), 0.0 nmol/min/ml of extract; with DNA-PK [2] (T98G, S10), 0.04 nmol/min/ml of extract. The “PO4 incorporated − DNA” value in the assay with DNA-PK [2] (HeLa, P10S) is reported as 0.0 nmol/min/ml of extract; in the assay with DNA-PK [2] (HeLa, S10), 0.0 nmol/min/ml of extract; with DNA-PK [2] (T98G, P10S) it was 0.0 nmol/min/ml of extract; in the assay with DNA-PK [2] (T98G, S10) it was 0.02 nmol/min/ml of extract. Further, the “phosphorylation by crude cell extracts (in words)” value in the assay with DNA-PK [2] (all extracts of Table 2 (HeLa, T98G, L 929)) is “poorly phosphorylated, if at all”. Further, the “Specific Activity + DNA” value is 0.24 nmol PO4/min/mg protein with DNA-PK [3] (Monkey COS-1, P10S); 0.02 nmol PO4/min/mg protein in the assay on DNA-PK [3] (Monkey COS-1, S10); 0.08 nmol PO4/min/mg protein with DNA-PK [3] (Monkey CV-1, P10S); 0.05 nmol PO4/min/mg protein in the assay on DNA-PK [3] (Monkey CV-1, S10). In addition, the “Specific Activity − DNA” value amounted to 0.0 nmol PO4/min/mg protein in the assay on DNA-PK [3] (Monkey COS-1, P10S); 0.0 nmol PO4/min/mg protein in the assay with DNA-PK [3] (Monkey COS-1, S10); 0.08 nmol PO4/min/mg protein in the assay on DNA-PK [3] (Monkey CV-1, P10S); 0.0 nmol PO4/min/mg protein in the assay with DNA-PK [3] (Monkey CV-1, S10).
